{"source": "patent US20060165677A1", "about": "“DELETION FORMS OF IgE-DEPENDENT HISTAMINE RELEASING FACTOR HAVING HISTAMINE RELEASING ACTIVITY, HRF-BINDING PEPTIDES AND THE USES THEREOF” (EWHA UNIVERSITY-INDUSTRY COLLABORATION FOUNDATION, priority 2005, published 2006)", "molecules": {"B1": {"name": "Del-N39C110HRF: deletion form of rat HRF, amino acid 39-110 fragment (protein, listed as Rattus norvegicus)", "chain": "TEGAIDDSLIGGNASAEGPEGEGTESTVVTGVDIVMNHHLQETSFTKEAYKKYIKDYMKSLKGKLEEQKPER"}, "B2": {"name": "Del-N35HRF: deletion form of rat HRF, amino acid 35-172 fragment; 34 N-terminal residues deleted (protein, listed as Rattus norvegicus)", "chain": "MVSRTEGAIDDSLIGGNASAEGPEGEGTESTVVTGVDIVMNHHLQETSFTKEAYKKYIKDYMKSLKGKLEEQKPERVKPFMTGAAEQIKHILANFNNYQFFIGENMNPDGMVALLDYREDGVTPFMIFFKDGLEMEKC"}, "B3": {"name": "RrHRF: recombinant total-length rat HRF, amino acids 1-172 (Accession number U20525) (protein, listed as Rattus norvegicus)", "chain": "MIIYRDLISHDELFSDIYKIREIADGLCLEVEGKMVSRTEGAIDDSLIGGNASAEGPEGEGTESTVVTGVDIVMNHHLQETSFTKEAYKKYIKDYMKSLKGKLEEQKPERVKPFMTGAAEQIKHILANFNNYQFFIGENMNPDGMVALLDYREDGVTPFMIFFKDGLEMEKC"}, "B4": {"name": "Del-N11HRF: deletion form of rat HRF, amino acid 11-172 fragment; 10 N-terminal residues deleted (protein, listed as Rattus norvegicus)", "chain": "DELFSDIYKIREIADGLCLEVEGKMVSRTEGAIDDSLIGGNASAEGPEGEGTESTVVTGVDIVMNHHLQETSFTKEAYKKYIKDYMKSLKGKLEEQKPERVKPFMTGAAEQIKHILANFNNYQFFIGENMNPDGMVALLDYREDGVTPFMIFFKDGLEMEKC"}, "B5": {"name": "Del-C112HRF: deletion form of rat HRF, amino acid 1-112 fragment (protein, listed as Rattus norvegicus)", "chain": "MIIYRDLISHDELFSDIYKIREIADGLCLEVEGKMVSRTEGAIDDSLIGGNASAEGPEGEGTESTVVTGVDIVMNHHLQETSFTKEAYKKYIKDYMKSLKGKLEEQKPERVK"}}, "key": {"deletion forms of HRF": {"test_system": "deletion forms of HRF", "assay": "Inhibition by HRF-binding peptide of HRF-induced histamine secretion in RBL-2H3 cells", "assay_type": "cell-based", "settings": "RBL-2H3 cells sensitized with rat IgE", "method": "RBL-2H3 cells (ATCC) were cultured in 24-well plate at the concentration of 5×10^4 cells/well, followed by sensitization with rat IgE antibody (0.2 μg/Ml, Serotec) for 60 minutes. The cells were treated with […] of recombinant HRF protein in 5% FBS/MEM medium (positive control). The cells were treated with heptamer peptide (Korean Registered Patent No. 457350B1) with different concentrations (0.0156-15.6 mM). 15 minutes later, rat anti-IgE antibody was added thereto. 4 hours later, supernatant was obtained and the isolated histamine was measured by using histamine analyzer (Astoria Analyzer, Series 300 system)."}, "Del-N35HRF": {"target": "T1, Del-N35HRF (Rattus norvegicus, UniProt P63029)", "T1 construct": "6xHis (pRSET-A leader) (N); made in house; host or cells: E. coli BL21(DE3) or BL21(DE3)pLysS", "T1 sequence (P63029 35-172)": "B2 chain", "assay": "Inhibition by HRF-binding peptides of Del-N35HRF-induced IL-8 secretion in BEAS-2B cells", "assay_type": "cell-based", "settings": "Del-N35HRF 61 nM, peptide 6.1-610 nM, 24 hours", "method": "The interactions between HRF-binding peptides and deletion forms of HRF were investigated in BEAS-2B cells. Del-N35HRF (61 nM) was treated to BEAS-2B cells by the same manner as described in Example 3. At that time, HRF-binding peptide and its mutant in which alanine was replaced (Korean Registered Patent No. 457350B1), and HRF-binding peptides in which amino acid 1 or 7 was deleted were added to Del-N35HRF with different concentrations (6.1-610 nM), followed by standing at room temperature for 10 minutes, which would be added to the cell lines. 24 hours later, supernatant was obtained and the released IL-8 was quantified by PIERCE."}, "[1]": {"test_system": "phage φ-HBP-2 expressing HRF-binding peptide", "assay": "Phage display peptide clone-binding capacity of immobilized HRF forms (ELISA)", "settings": "HRF form immobilized on plate, ELISA at 405 nm", "method": "Each deletion form of HRF was immobilized on a plastic well, to which phage expressing HRF-binding peptide was added in order to investigate binding capacity of each HRF.\nParticularly, each deletion form of HRF dissolved in coating buffer (0.1 M NaHCO3, pH 8.6) at the concentration of 20 μg/Ml was placed on polystyrene microtiter plate by 50 μl, followed by coating at 4° C. for overnight and non-specific binding was blocked with BSA. The plate was washed with 0.1% tween/TBS (TBST) 6 times, to which 30 μl of phage solution diluted in 30 μl of 6% BSA/PBS was added. The solution stood at room temperature for 2 hours. After washing with PBST five times, 100 μl of […] anti-M13 antibody (Pharmacia), diluted in 3% BSA/PBS at the ratio of 1:5000, was added to the solution, followed by standing at room temperature for one hour. After washing 6 times with PBST and once more with PBS, 100 μl of peroxidase substrate solution was added and color development was measured at 405 nm by using ELISA reader (Bio-Rad)."}, "BEAS-2B cells": {"test_system": "BEAS-2B cells", "assay": "IL-8 releasing activity in BEAS-2B cells according to HRF forms", "assay_type": "cell-based", "settings": "for IL-8 releasing activity at low level of HRF: HRF 1 μg/Ml, lower than minimum level for IL-8 secretion by wild type HRF; for IL-8 releasing activity: compared with wild type HRF", "method": "The activities of different deletion forms of HRF were compared by investigating IL-8 secretions in BEAS-2B cells (ATCC). BEAS-2B cells were cultured in 48-well plate until they were 70% grown up. Then, the cells were washed with 1% penicillin-streptomycin/BEBM (Clonetics) twice, to which each recombinant protein (RrHRF or each deletion form of HRF) separated in Example <1-3> was added by 1 μg/Ml or 10 μg/Ml. 48 or 24 hours later, supernatant was obtained and IL-8 therein was measured by PIERCE (FIG. 5)."}, "[2]": {"test_system": "IgE sensitized human basophils", "assay": "Histamine releasing activity in human basophils according to HRF forms", "assay_type": "cell-based", "settings": "compared with wild type HRF", "method": "The activities of different deletion forms of HRF were compared by investigating histamine secretions in human basophils. 40 Ml of venous blood was taken from a donor with atopic dermatitis. To the blood sample was added 10 mM of EDTA, an anticoagulant, and 10 Ml of dextran containing 6% saline. The solution stood at room temperature for 90 minutes and then supernatant containing leukocytes was separated, followed by centrifugation at 150×g for 8 minutes. The recovered leukocytes were washed twice with PAG-EDTA (4 mM EDTA, 25 mM PIPES, 110 mM NaCl, 5 mM KCl, 0.003% HSA, 0.1% D-glucose), which were left in cold lactate buffer (13.4 mM lactic acid, 140 mM NaCl, 5 mM KCl, pH 3.9) for 3-5 minutes to eliminate IgE adhered on the surface of cells. The cells were washed with 30 Ml of PAG-EDTA twice and resuspended in PAG-EDTA, followed by IgE-sensitization (1 μg/Ml, Serotec) for 2 hours. Then, the cells were washed with IMDM medium (Gibco BRL) supplemented with 5% FBS twice, to which each recombinant protein (rHRF or each deletion form of HRF) prepared in Example <1-3> was added by 20 μg/Ml. 15 minutes later, human anti-IgE antibody was added thereto. Four hours later, supernatant was obtained. The isolated histamine was measured by histamine analyzer (Astoria Analyzer, Series 300 system) (FIG. 6)."}}, "note": "Entries after “also recorded” stand apart in the source; their conditions may differ."}
{"molecule": "HBP-2: HRF-binding heptamer peptide having the sequence WYVYPSM (Korean Registered Patent No. 457350B1)", "values": [{"measurement": "inhibition of histamine releasing by deletion forms of HRF", "setting": "deletion forms of HRF", "result": "inhibits"}, {"measurement": "inhibition of histamine releasing by deletion forms of HRF", "setting": "deletion forms of HRF; listed as HRF-binding peptide", "result": "dose-dependently"}, {"measurement": "inhibition of IL-8 secretion by deletion forms of HRF", "setting": "Del-N35HRF", "result": "inhibits"}, {"measurement": "inhibition of IL-8 secretion by deletion forms of HRF", "setting": "Del-N35HRF; listed as HRF-binding peptide", "result": "dose-dependently"}]}
{"molecule": "Del-N84C108HRF: deletion form of rat HRF, amino acid 84-108 fragment (TKEAYKKYIKDYMKSLKGKLEEQKP; listed as Rattus norvegicus)", "values": [{"measurement": "affinity to phage expressing HRF-binding heptamer peptide (HBP2)", "setting": "[1]", "result": "high"}, {"measurement": "affinity to phage expressing HRF-binding heptamer peptide (HBP2)", "setting": "[1]; listed as SEQ ID NO:8", "result": "excellent"}]}
{"molecule": "B1", "values": [{"measurement": "affinity to phage expressing HRF-binding heptamer peptide (HBP2)", "setting": "[1]; listed as SEQ ID NO:5", "result": "excellent"}]}
{"molecule": "B2", "values": [{"measurement": "IL-8 releasing activity at low level of HRF", "setting": "BEAS-2B cells", "result": "detected"}, {"measurement": "IL-8 releasing activity", "setting": "BEAS-2B cells", "result": "greater"}, {"measurement": "IL-8 releasing activity", "setting": "BEAS-2B cells; listed as SEQ ID NO:3", "result": "excellent; also recorded: increased"}, {"measurement": "histamine releasing activity", "setting": "[2]", "result": "more effectively than wild type HRF; also recorded: increased"}, {"measurement": "histamine releasing activity", "setting": "[2]; listed as SEQ ID NO:3", "result": "excellent; also recorded: similarly induced histamine releasing"}, {"measurement": "affinity to phage expressing HRF-binding heptamer peptide (HBP2)", "setting": "[1]", "result": "very strong"}]}
{"molecule": "B3", "values": [{"measurement": "affinity to phage expressing HRF-binding heptamer peptide (HBP2)", "setting": "[1]", "result": "very weak"}, {"measurement": "affinity to phage expressing HRF-binding heptamer peptide (HBP2)", "setting": "[1]; listed as wild type HRF", "result": "weak"}]}
{"molecule": "B4", "values": [{"measurement": "IL-8 releasing activity at low level of HRF", "setting": "BEAS-2B cells", "result": "detected"}, {"measurement": "IL-8 releasing activity", "setting": "BEAS-2B cells", "result": "greater"}, {"measurement": "IL-8 releasing activity", "setting": "BEAS-2B cells; listed as SEQ ID NO:2", "result": "increased"}, {"measurement": "histamine releasing activity", "setting": "[2]", "result": "more effectively than wild type HRF; also recorded: increased"}, {"measurement": "histamine releasing activity", "setting": "[2]; listed as SEQ ID NO:2", "result": "similarly induced histamine releasing"}, {"measurement": "affinity to phage expressing HRF-binding heptamer peptide (HBP2)", "setting": "[1]", "result": "very strong"}]}
{"molecule": "B5", "values": [{"measurement": "histamine releasing activity", "setting": "[2]", "result": "as much as that of wild type HRF"}, {"measurement": "affinity to phage expressing HRF-binding heptamer peptide (HBP2)", "setting": "[1]", "result": "very weak and weak"}]}
